Source: paper PMC3500698 (Science signaling, 2012)

How the values were obtained:
[1] = molecular target: extracellular signal-regulated kinase 2 (ERK2) (human) (UniProt P28482); assay: fluorescence polarisation
[2] = molecular target: p38α (human) (UniProt Q16539); assay: fluorescence polarisation
[3] = tested on: JNK1, p38α and ERK2; assay: MAPK interaction profile from FP binding affinities; design: species or system human; conditions: from FP binding affinities to JNK1, p38α and ERK2
[4] = molecular target: extracellular signal-regulated kinase 2 (ERK2) (human, UniProt P28482); assay: fluorescence polarisation
Sequence of extracellular signal-regulated kinase 2 (ERK2) (P28482 whole entry): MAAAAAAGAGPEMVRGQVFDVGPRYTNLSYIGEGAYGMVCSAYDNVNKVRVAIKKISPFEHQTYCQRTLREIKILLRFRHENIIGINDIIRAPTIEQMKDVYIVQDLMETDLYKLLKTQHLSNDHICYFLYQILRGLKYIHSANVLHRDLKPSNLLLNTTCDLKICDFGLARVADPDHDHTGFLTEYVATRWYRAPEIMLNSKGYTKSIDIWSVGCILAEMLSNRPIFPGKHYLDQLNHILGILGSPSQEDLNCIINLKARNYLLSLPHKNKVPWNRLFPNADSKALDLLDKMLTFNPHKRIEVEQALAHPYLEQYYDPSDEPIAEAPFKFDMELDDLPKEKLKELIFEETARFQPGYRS

[5] = molecular target: p38α (human, UniProt Q16539 1-360); assay: fluorescence polarisation
Sequence of p38α (Q16539 whole entry): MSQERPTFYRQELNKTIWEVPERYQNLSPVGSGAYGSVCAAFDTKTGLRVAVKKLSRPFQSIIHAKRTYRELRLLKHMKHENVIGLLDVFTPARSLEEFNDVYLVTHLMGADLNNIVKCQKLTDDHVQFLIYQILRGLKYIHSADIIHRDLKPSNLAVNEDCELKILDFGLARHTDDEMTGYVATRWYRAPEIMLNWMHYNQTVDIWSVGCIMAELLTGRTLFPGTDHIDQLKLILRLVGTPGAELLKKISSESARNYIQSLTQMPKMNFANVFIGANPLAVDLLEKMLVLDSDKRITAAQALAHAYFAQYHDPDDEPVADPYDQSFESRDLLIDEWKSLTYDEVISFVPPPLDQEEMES

Sequence of extracellular signal-regulated kinase 2 (ERK2) (human) (P28482 whole entry): as the sequence (P28482 whole entry) above
Sequence of p38α (human) (Q16539 whole entry): as the sequence (Q16539 whole entry) above

Q: How did the fold preference for the cognate MAPK (ERK2 against p38α) [1] turn out when “pepRSK1 (C-terminal MAPK docking peptide of RSK1)” was run?
A: Its fold preference for the cognate MAPK (ERK2 against p38α) is 20 fold.

Q: Which fold preference for the cognate MAPK (p38α against ERK2) [2] does the source give for “pepMK2 (C-terminal MAPK docking peptide of MK2)” here?
A: The fold preference for the cognate MAPK (p38α against ERK2) was 400 fold.

Q: For LERPSRDHLYLPLE [pepNFAT4], which “MAPK binding profile (in words)” value [3] is on record?
A: The value was “bound JNK1 exclusively”.

Q: And the “MAPK binding profile (in words)” value ([3]; listed as NFAT4)?
A: The value was “JNK-specific”.

Q: With LSLSSLAASSLAKRRQQ (designed binder) [pepSynth-revD (artificially designed revD-motif peptide)] as the molecule, how does the Kd [4] read?
A: The Kd was about 10 µM.

Q: What about the Kd [5] of the same molecule?
A: The Kd was about 30 µM.
